For assay [1], the target named is S100B (UniProt P04271). Briefly: NMR titration.
In assay [2] the target is S100B (UniProt P04271). In words: NMR titration. This is another data set of the same source.
Assay [3] has as its target p53 362-393 (Homo sapiens) (UniProt P04637). As to conditions: cited from earlier work.
The target of assay [4] is RAGE 129-336 (Homo sapiens) (UniProt Q15109). As to conditions: cited from earlier work.
In assay [5] the target is Myelin-associated glycoprotein (Homo sapiens) (UniProt P20916). As to conditions: cited from earlier work.
Chain of Myelin-associated glycoprotein (Homo sapiens) (P20916 20-626): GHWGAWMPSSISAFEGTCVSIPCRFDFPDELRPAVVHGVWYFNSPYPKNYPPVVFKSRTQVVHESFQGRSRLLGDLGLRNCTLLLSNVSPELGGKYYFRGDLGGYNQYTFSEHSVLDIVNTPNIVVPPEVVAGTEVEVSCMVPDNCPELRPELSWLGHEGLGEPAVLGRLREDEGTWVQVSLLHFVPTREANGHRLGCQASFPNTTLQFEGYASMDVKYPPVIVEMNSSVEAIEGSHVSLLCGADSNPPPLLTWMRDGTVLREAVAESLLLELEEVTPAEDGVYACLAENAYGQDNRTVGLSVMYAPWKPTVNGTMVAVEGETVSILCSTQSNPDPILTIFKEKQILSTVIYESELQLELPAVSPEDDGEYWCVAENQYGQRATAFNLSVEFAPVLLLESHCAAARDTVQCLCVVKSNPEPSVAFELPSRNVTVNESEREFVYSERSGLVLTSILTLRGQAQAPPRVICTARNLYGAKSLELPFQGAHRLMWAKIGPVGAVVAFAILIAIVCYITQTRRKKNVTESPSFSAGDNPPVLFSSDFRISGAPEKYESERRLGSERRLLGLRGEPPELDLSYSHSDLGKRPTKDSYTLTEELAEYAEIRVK
Another assay concerns the target SIP (Homo sapiens) (UniProt Q9HB71). As to conditions: cited from earlier work.
Assay [6] concerns the target TRTK-12 TRTK-12 (Homo sapiens) (UniProt P52907). As to conditions: cited from earlier work.

Read-outs that look alike come from different tables or passages of the source.

Chain of S100B (from UniProt P04271) (P04271 2-92): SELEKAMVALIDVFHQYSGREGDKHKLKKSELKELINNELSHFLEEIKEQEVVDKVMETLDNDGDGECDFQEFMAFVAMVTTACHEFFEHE
Chain of S100B (UniProt P04271) (P04271 2-92): as above
Chain of RAGE 129-336 (Homo sapiens) (Q15109 129-336): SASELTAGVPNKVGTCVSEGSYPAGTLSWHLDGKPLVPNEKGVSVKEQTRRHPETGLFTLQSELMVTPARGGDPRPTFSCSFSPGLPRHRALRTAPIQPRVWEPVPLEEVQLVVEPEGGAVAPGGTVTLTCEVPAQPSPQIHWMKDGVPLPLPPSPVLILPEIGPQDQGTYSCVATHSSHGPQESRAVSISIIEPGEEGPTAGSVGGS
Chain of SIP (Homo sapiens) (Q9HB71 2-228): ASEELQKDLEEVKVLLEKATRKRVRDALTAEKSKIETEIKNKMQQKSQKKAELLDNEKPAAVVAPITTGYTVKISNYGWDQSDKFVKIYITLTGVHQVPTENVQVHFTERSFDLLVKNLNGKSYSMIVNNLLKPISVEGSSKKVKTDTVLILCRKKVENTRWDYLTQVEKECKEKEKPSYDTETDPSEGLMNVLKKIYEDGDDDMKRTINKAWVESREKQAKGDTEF
Chain of S100A12 (P80511 2-92): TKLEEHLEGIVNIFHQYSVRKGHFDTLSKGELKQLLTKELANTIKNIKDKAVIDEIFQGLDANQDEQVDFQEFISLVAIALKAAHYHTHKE
Chain of S100A2 (P29034 whole entry): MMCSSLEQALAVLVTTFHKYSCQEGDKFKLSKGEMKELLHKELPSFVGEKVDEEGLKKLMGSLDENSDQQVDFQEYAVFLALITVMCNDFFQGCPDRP
Chain of p53 362-393 (Homo sapiens) (P04637 362-393): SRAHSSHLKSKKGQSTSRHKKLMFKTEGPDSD

As for “IC3-C30 (from UniProt P61169-2 316-345) (peptide)”, in the assay with S100B [1], the Kd was determined as 98 µM.
“IC3-M28 (from UniProt P61169-2 288-315) (peptide)”: the Kd amounted to 148 µM with S100B [2] and 149 µM with S100B [1].
As to S100A2 (from UniProt P29034), in assay [3], the Kd is 106 µM.
In the case of S100A12 (from UniProt P80511), the Kd in assay [4] is 140 µM.
S100B (from UniProt P04271): the Kd in assay [5] was 7 µM; with SIP (Homo sapiens), 5 µM; in assay [6], 0.3 µM.

Broadly, the Kd is a measure of binding affinity in units of concentration.

(Values after paper PMC3196243.)
